{
  "source": "patent US20140357845A1",
  "about": "(published 2014)",
  "binders": {"B1": {"name": "CR9114 (antibody, V domains shown)", "VH": "QVQLVQSGAEVKKPGSSVKVSCKSSGGTSNNYAISWVRQAPGQGLDWMGGISPIFGSTAYAQKFQGRVTISADIFSNTAYMELNSLTSEDTAVYFCARHGNYYYYSGMDVWGQGTTVTVSS", "VL": "SYVLTQPPAVSGTPGQRVTISCSGSDSNIGRRSVNWYQQFPGTAPKLLIYSNDQRPSVVPDRFSGSKSGTSASLAISGLQSEDEAEYYCAAWDDSLKGAVFGGGTQLTVL"}},
  "key": {"[1]": {"target": "mini-H3 cluster1 + 2 + 3 + 4 + 5 + 6 + 7-N405A (influenza A virus H3N2, UniProt Q38SQ8 18-566)", "test": "FACS"}, "[2]": {"target": "mini-H3 cluster1 + 2 + 3 + 4 + 5 + 6 + 7-N405D (influenza A virus H3N2, UniProt Q38SQ8 18-566)", "test": "FACS"}},
  "data": [
    {"binder": "B1", "values": [
      {"measurement": "binding result", "setting": "[1]", "value": "no binding (tested: 5 microgram/ml)"},
      {"measurement": "binding result", "setting": "[2]", "value": "no binding (tested: 5 microgram/ml)"}
    ]}
  ]
}
